Test results from patent US20160032001A1 (APEXIGEN, published 2016).
Where two headings read alike, the source gives them in different places. One block for each binder: values may come before it.

How the values were obtained:
[1] = molecular target: T1, RANKL expressed on the surface of 293 cells (UniProt O14788 1-317, limits assumed); test: flow cytometry (MFI) on RANKL-transfected 293 cells
T1 construct: whole, on cells; also called RANKL-transfected 293 cells; cells expressing RANKL
T1 sequence (looked up): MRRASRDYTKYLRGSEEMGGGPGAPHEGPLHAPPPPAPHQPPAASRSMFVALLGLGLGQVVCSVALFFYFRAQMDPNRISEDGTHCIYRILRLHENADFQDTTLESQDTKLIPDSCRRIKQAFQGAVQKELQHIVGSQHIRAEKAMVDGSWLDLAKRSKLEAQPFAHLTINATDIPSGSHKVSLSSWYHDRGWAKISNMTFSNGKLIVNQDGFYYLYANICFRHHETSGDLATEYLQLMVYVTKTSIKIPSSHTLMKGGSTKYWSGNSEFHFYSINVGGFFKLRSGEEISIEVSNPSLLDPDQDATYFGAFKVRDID

human RANKL protein [2] = molecular target: T2, human RANKL protein (human, UniProt O14788 140-317, limits assumed); test: competition ELISA: RANKL (0.5 ug/ml) pre-incubated with the antibody, then binding to coated human RANK (8 ug/ml) detected; blocked partner RANK
T2 sequence (looked up): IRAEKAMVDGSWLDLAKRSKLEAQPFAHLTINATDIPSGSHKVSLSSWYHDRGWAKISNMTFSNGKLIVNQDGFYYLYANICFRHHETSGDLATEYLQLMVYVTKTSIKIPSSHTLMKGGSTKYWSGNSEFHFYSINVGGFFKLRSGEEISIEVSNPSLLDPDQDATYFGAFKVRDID

human RANKL protein [3] = molecular target: T2, human RANKL protein; test: as above; remark: listed apart in the source
human RANKL protein [4] = molecular target: T2, human RANKL protein; test: surface plasmon resonance
human RANKL protein [5] = molecular target: T2, human RANKL protein; test: cell-based or functional assay
human RANKL protein [6] = molecular target: T2, human RANKL protein; test: competition ELISA: RANKL (0.5 ug/ml) pre-incubated with the antibody, then binding to coated RANK (8 ug/ml) detected; blocked partner RANK [table at the lower right]
[7] = molecular target: T1, RANKL expressed on the surface of 293 …; test: flow cytometry (MFI) on RANKL-transfected 293 cells; remark: listed apart in the source
[8] = molecular target: T1, RANKL expressed on the surface of 293 …; test: as above; remark: listed apart in the source
[9] = molecular target: T1, RANKL expressed on the surface of 293 …; test: as above; remark: listed apart in the source
human RANKL protein [10] = molecular target: T2, human RANKL protein; test: ELISA on RANKL protein (OD450nm)
human RANKL protein [11] = molecular target: T2, human RANKL protein; test: competition ELISA: RANKL (0.5 ug/ml) pre-incubated with the antibody, then binding to coated human RANK (8 ug/ml) detected; blocked partner RANK; remark: listed apart in the source
[12] = molecular target: T1, RANKL expressed on the surface of 293 …; test: flow cytometry (MFI) on RANKL-transfected 293 cells; remark: listed apart in the source

IC50 (human RANKL protein [3]): 0.0439 µg/mL
Kd (human RANKL protein [4]): 0.312 nM
koff (human RANKL protein [4]): 0.000275 s⁻¹
kon (human RANKL protein [4]): 880000 M⁻¹ s⁻¹
IC50 in a RAW cell assay (TRAP activity, OD 405 nM) (human RANKL protein [5]): 0.0036 µg/mL
IC50 (human RANKL protein [6]): 0.083 µg/mL
EC50 [7]: 0.4 µg/mL
EC50 [8]: 0.083 µg/mL
B2: clone EBI-51-22 rabbit anti-RANKL antibody (antibody, V domains shown)
VH: QSVEESGGRLVTPGTLLTLTCTVSGFSLSTDVLSWVRQAPGKGLEWIGYTWSGGSTYYASWAKGRFTISKTSSTTVDLKITSPTTEDTATYFCARGFNPFDPWGPGTLVTVSS
VL: DMTQTPASVSDPVGGTVTIKCQASQNIGSNLAWYQQKPGQRPKLLIYRASTLASGVSSRFKGSGSGTQFTLTISDLECADAATYYCQQGYSAGNVDNNAFGGGTEVVVK

IC50 (human RANKL protein [3]): 0.0388 µg/mL
EC50 [8]: 0.078 µg/mL
B4: clone EBI-51-4 rabbit anti-RANKL antibody (antibody, V domains shown)
VH: QSVEESGGRLVKPGESLTLTCTASGFSLSSDVISWVRQAPGKGLEWIGYGWSGGPTYYANWAKGRFTISKTSSTTVDLKITSPTTEDTATYFCARGFNPFDPWGPGTLVTVSS
VL: DMTQTPASVSEPVGGTVTIKCQASQNIGSNLAWYQQKPGQRPKLLIYRASTLASGVSSRFKGSGSGTQFTLTISDLECADAATYYCQQGYSAGNVDNSFGGGTEVVVK

IC50 (human RANKL protein [3]): 0.0482 µg/mL
EC50 [8]: 0.156 µg/mL
B5: clone EBI-51-23 rabbit anti-RANKL antibody (antibody, V domains shown)
VH: QSVKESEGGLFKPTDTLTLTCTVSGFSLSIYEISWVRQAPGKELEWIGYIGVGGVTYYANWAKSRSTITRNTNQKMVALKMTSLTAADTATYFCARGYNPFDLWGPGTLVTVSS
VL: DMTQTPASVEVAVGGTVTINCQASQNIGSNLAWYQQKPGQPPKLLIYKASTLASGVPSRLKGSGSGTEFTLTISGVQCDDAATYYCQQGYTTGNVDNPFGGGTEVVVK

IC50 (human RANKL protein [6]): 0.096 µg/mL
EC50 [7]: 0.731 µg/mL
B6: humanized clone 408 anti-RANKL antibody (antibody, V domains shown)
VH: EVQLVESGGGLVQPGGSLRLSCAVSGFSLSTDVVSWVRQAPGKGLEWIGYTWNGGATFYASWAKGRFTFSKDSSKNTVYLQMNSPRAEDTAVYFCARGYNGMDPWGPGTLVTVSS
VL: DIQMTQSPSSLSASVGDRVTIKCQASQNIGSNLAWYQQKPGKPPKLLISKASTLASGVPSRFSGSGSGTDFTLTISSLQPEDFATYYCQQGYTTKNVVNPFGGGTKVEIK

IC50 (human RANKL protein [6]): 0.127 µg/mL
EC50 [7]: 0.361 µg/mL
B7: humanized clone EBI-51-22 anti-RANKL antibody (antibody, V domains shown)
VH: EVQLVESGGGLVQPGGSLRLSCAVSGFSLSTDVLSWVRQAPGKGLEWIGYTWSGGSTYYASWAKGRFTISKDSSKNTVYLQMNSPRAEDTAVYFCARGFNPFDPWGPGTLVTVSS
VL: DIQMTQSPSSLSASVGDRVTIKCQASQNIGSNLAWYQQKPGKRPKLLIYRASTLASGVPSRFSGSGSGTDFTLTISSLQPEDFATYYCQQGYSAGNVDNNAFGGGTKVEIK
notes: also called humanized EBI-51-22; humanized EBI51-22

IC50 (human RANKL protein [6]): 0.112 µg/mL
EC50 [9]: 0.414 µg/mL
B11: humanized clone 23 antibody, VH 23HZD-1 HC with humanized VL 23 Vk (antibody, V domains shown)
VH: EVQLVESGGGLVQPGGSLRLSCAASGFSLSSDGMSWVRQAPGKGLEWIGYIYSGSSPYYANWAKGRFTISKDSSKNTVYLQMNSLRAEDTAVYFCARHGSGGGWYLDIWGPGTLVTVSS
VL: DIQMTQSPSSLSASVGDRVTINCQASQTIGTNLAWYQQKPGKRPKLLIYAASTLPSGVPSRFSGSGSGTDFTLTISSLQPEDFATYYCQQAYSVGNVDNAFGGGTKVEIK
notes: also called humanized 23 Vk; 23LHZD

EC50 (human RANKL protein [10]): 0.0117 µg/mL
B13: h23n IgG2 humanized clone 23 antibody (antibody, V domains shown)
VH: QEQLVESGGGLVQPGGSLRLSCVASGFSLSSDGMSWVRQAPGKGLEWIGYIYSGSSPYYANWAKGRFTISKDSSTNTVFLQMNSLRAEDTAVYFCARHGDGGGWYLDIWGPGTLVTVSS
VL: DIQMTQSPSSLSASVGDRVTINCQASQSIGSNLAWYQQKPGKAPKLLIYAASTLPSGVSSRFSGSGSGTDFTLTINSLEAEDAATYYCQQAYSVGNVDNAFGGGTKVEIK
notes: IgG2; also called h23n VH and VL

The remaining lines, values behind:

B1: clone 191 rabbit anti-RANKL antibody (antibody, V domains shown)
VH: QSVEESGGRLVTPGTPLTLTCTVSGFSLYTNLINWVRQAPGKGLEWIGYINYGASAYYANWAKGRFTISQTSSTTVDLKMTSLTIEDTATYFCARGYGNDWDRLDLWGQGTLVTVSS
VL: IVMTQTPSPVSGAVGGTVTINCQASQSIGSNLAWYQQKPGQPPKLLIYSASILASGAPSRVSGSGYGTEFTLTISGVQCADAATYYCQQGYTTNADNIFGGGTEVVVE
EC50 [1]: 0.174 µg/mL
IC50 (human RANKL protein [2]): 0.0823 µg/mL

B3: clone EBI-51-2 rabbit anti-RANKL antibody (antibody, V domains shown)
VH: QSLEESGGRLVTPGTPLTLTCTASGFTISTDVISWVRQAPGKGLEWIGYTWSGGSTYYANWAKGRFTLSKTSSTTVDLKITSPTIEDTATYFCARGFNPFDPWGPGTLVTVSS
VL: DMIQTPASVSEPVGGTVTIVCQASQNIGSNFAWYQQKPGQPPKLLIYRASTLASGVSSRFKGSGFGTQFTLTISDLECADAATYYCQQGYSAGNVDNNFGGGTEVVVK
IC50 (human RANKL protein [3]): 0.0389 µg/mL
EC50 [8]: 0.0621 µg/mL

B8: clone 210 rabbit anti-RANKL antibody (antibody, V domains shown)
VH: QSVKESGGGLVTPGGTLTLTCTASGFSLSNNAMSWVRQAPGKGLEWIGYIYPGGSPYYANWAKGRFTISRTSTTVDLKMTSLTTEDTATYFCARHVSDGGWYLYIWGPGTLVTVSL
VL: DMIQTPASVEVAVGGTVTINCQASQSIGSNLAWYQQKPGQPPKLLIYGASTLASGVPSRFKGSGSGTQFTFTISDVECTAAATYYCQQAYSISNVDNAFGGGTEVVVK
EC50 [1]: 0.292 µg/mL
IC50 (human RANKL protein [2]): 0.071 µg/mL

B9: clone 174 rabbit anti-RANKL antibody (antibody, V domains shown)
VH: QEQLQESGGGLITPGGTLTLTCTASGFSFNRNALSWVRQAPGKGLEWIGYIYSGGSPYYANWAKGRFNVSRTSTTVDLRMTSLTTEDTATYFCARHVSGGGWYLDIWGPGTLVTVSL
VL: DMIQTPASVEVAVGGTVTINCQASQNIGSNLAWYQQKPGQPPKLLIYGTSTLASGVSSRFKGSGFGTQFTFTISDVECTDAATYYCQQAYSISNVDNAFGGGTEVVVK
EC50 [1]: 0.13 µg/mL
IC50 (human RANKL protein [2]): 0.0762 µg/mL

B10: clone 193 rabbit anti-RANKL antibody (antibody, V domains shown)
VH: QSVEESGGRLVTPGTPLTLTCTFSGFSLSNNAINWVRQAPGKGLEWIGYTWSGGGTYCASWAKGRFTISKTSSTTVDLKMTSLTTEDTATYFCARAYDSEWDRLDLWGQGTLVTVSS
VL: VMTQTPASVSGPVGGTVTIKCQASQSIGSNLGWYQQKPGQPPKLLIFSASNLESGVPSRFKGSGSGTQFTLTISDLECDDAATYYCQQGYTTNNVLNAFAGGTEVVVK
EC50 [1]: 0.135 µg/mL
IC50 (human RANKL protein [2]): 0.0665 µg/mL

B12: humanized clone 23 antibody, VH 23HZD-1 HC with humanized VL 23 Vkb, IgG1 (antibody, V domains shown)
VH: EVQLVESGGGLVQPGGSLRLSCAASGFSLSSDGMSWVRQAPGKGLEWIGYIYSGSSPYYANWAKGRFTISKDSSKNTVYLQMNSLRAEDTAVYFCARHGSGGGWYLDIWGPGTLVTVSS
VL: DIQMTQSPSSLSASVGDRVTINCQASQSIGSNLAWYQQKPGKRPKLLIYAASTLPSGVPSRFSGSGSGTDFTLTISSLQPEDFATYYCQQAYSVGNVDNAFGGGTKVEIK
notes: also called h23 IgG1
EC50 (human RANKL protein [10]): 0.0425 µg/mL

B14: clone 23 rabbit anti-RANKL antibody (antibody, V domains shown)
VH: QEQLKESGGGLVTPGGTLTLTCTASGFSLSSDGMSWVRQAPGKGLEWIGYIYSGSSPYYANWAKGRFTISKTSSTTVDLKMTSLTTEDTATYFCARHGSGGGWYLDIWGPGTLVTVSS
VL: AYDMIQTPASVEVAVGGTVTINCQASQTIGTNLAWYQQKPGQRPKLLIYAASTLPSGVSSRFKGSGSGTQFTLTISDVECSDAATYYCQQAYSVGNVDNAFGGGTEVVVK
notes: also called RabMAb 23; parent 23 rabbit antibody
Kd (human RANKL protein [4]): 0.162 nM
koff (human RANKL protein [4]): 0.000154 s⁻¹
kon (human RANKL protein [4]): 950000 M⁻¹ s⁻¹
IC50 in a RAW cell assay (TRAP activity, OD 405 nM) (human RANKL protein [5]): 0.00171 µg/mL
IC50 (human RANKL protein [6]): 0.041 µg/mL
EC50 [1]: 0.0903 µg/mL
EC50 [9]: 0.1 µg/mL
IC50 (human RANKL protein [2]): 0.0111 µg/mL

B15: clone 408 rabbit anti-RANKL antibody (antibody, V domains shown)
VH: QSVEESGGRLVTPGTPLTLTCTVSGFSLSTDVVSWVRQAPGKGLEWIGYTWNGGATFYASWAKGRFTFSKTSTTVDLKITSPTTEDTATYFCARGYNGMDPWGPGTLVTVSS
VL: DMTQTPASVEAAVGGAVTIKCQASQNIGSNLAWYHQKPGQPPKLLISKASTLASGVPSRFKGSGSGTEFTLAISDLECADAATYYCQQGYTTKNVVNPFGGGTEVVVK
IC50 (human RANKL protein [11]): 0.058 µg/mL
Kd (human RANKL protein [4]): 0.432 nM
koff (human RANKL protein [4]): 0.000262 s⁻¹
kon (human RANKL protein [4]): 607000 M⁻¹ s⁻¹
IC50 in a RAW cell assay (TRAP activity, OD 405 nM) (human RANKL protein [5]): 0.00644 µg/mL
IC50 (human RANKL protein [6]): 0.098 µg/mL
EC50 [7]: 0.303 µg/mL
EC50 [12]: 0.0898 µg/mL
